{"source": "the DeepSol protein solubility set", "data": [{"experiment": "soluble on expression in E. coli; label from the status in PepcDB or PDB records", "values": [{"sequence": "MGSDKIHHHHHHMATLGANASLYSEQHRITYYECDRTGRATLTTLIDIAVLASEDQSDALGLTTEMVQSHGVGWVVTQYAIDITRMPRQDEVVTIAVRGSAYNPYFAYREFWIRDADGQQLAYITSIWVMMSQTTRRIVKILPELVAPYQSEVVKRIPRLPRPISFEATDTTITKPYHVRFFDIDPNRHVNNAHYFDWLVDTLPATFLLQHDLVHVDVRYENEVKYGQTVTAHANILPSEVADQVTTSHLIEVDDYYCCEVTIQWRTLPEPIQ", "soluble on expression in E. coli": "not soluble"}, {"sequence": "MGFSDLRDKVVIVTGASMGIGRAIAERFVDEGSKVIDLSIHDPGEAKYDHIECDVTNPDQVKASIDHIFKEYGSISVLVNNAGIESYGKIESMSMGEWRRIIDVNLFGYYYASKFAIPYMIRSRDPSIVNISSVQASIITKNASAYVTSKHAVIGLTKSIALDYAPLLRCNAVCPATIDTPLVRKAAELEVGSDPMRIEKKISEWGHEHPMQRIGKPQEVASAVAFLASREASFITGTCLYVDGGLSIRAPISTPELEHHHHHH", "soluble on expression in E. coli": "soluble"}, {"sequence": "GSHMVMNTHPYQSEAVSDVWSLSKTSMTFQPKKASLQPLTISLDELFSSRGEFISVGGNGRMSHKEAILLGLRYKKLYNQARVKYSL", "soluble on expression in E. coli": "soluble"}, {"sequence": "MDWRWWKIAYEELTEKQQRFVDKYITTFNATESAKQAGYSEKSAYSQGQRLLKNVEIQKAMKERFLEAKDTKGDRIQDVAETLEQDTSIARGEIQISEFKETDMLTGQVVIHTKREYTPSHEEQGRARDRIYKVNGAYSEKRELEHSGTVVFANEDNIPD", "soluble on expression in E. coli": "not soluble"}, {"sequence": "MGSDKIHHHHHHMIKALLTVSTILVSSHALATDKPADKPWHNEKPTLSTINAPTKVMPMVCKQTQALAYLKELQSGKKDIYSVKSNDHGGKGANDSGWLTWRVDDPTNLIPCPKGGAADTEVGMCWKELNDEPTVIGLVRVAPGTAAPHYHREMECYYGLSGQGLTWAQERMQPFGAGDYIEIPSKAIHYTPNTYDDQDLIYMYWFPLDGKFSTFKYQWPKDVGPGEQLMFDFVPYTNSKTVRSGNDGYGWDVIQKSKK", "soluble on expression in E. coli": "not soluble"}, {"sequence": "MYQNFVTKHDTAIQTSRFSVTGNVIPAAPTGNIPVINGGSITAERAVVNLYANMNVSTSSDGSFIVAMKVDTSPTDPNCVISAGVNLSFAGTSYPIVGIVRFESASEQPTSIAGSEVEHYPIEMSVGSGGVCSARDCATVDIHPRTSGNNVFVGVICSSAKWTSGRVIGTIATTQVIHEYQVLQPLK", "soluble on expression in E. coli": "soluble"}, {"sequence": "MPSYKLSYFPVRGLAESARLLFHLAGVPFEDERVNFLDDTWEKMKGKTPMGQLPVLTVDDFEIPQSAAINRYLARKFGFAGKTPEEEAWVDAVVDQFKDFFAEFRKLVIAKRVGKSAEELEKLTAEVIKPAMDVYFKVLNGLLEKSKSGYLIGDSITFADLYIADNIQTLKKYGLLEASGEQPKLAAHLEKVYSHPNLKSYIASRPVTEI", "soluble on expression in E. coli": "not soluble"}, {"sequence": "MEKMIITAAICGAEVLKEHNPAVPYTVEECVREAKSAYDAGASIIHLHVRYDDGTPTQDRNRFKEVMEAIKAVCPDVIIQPSTGGAVGMTNDERLQPTELFPEMATLDCGTLNFGGDEVFTNTENTIKYFGEKMIERGIKPELEVFDKSMIDMALRLHRKGYIQSPMHFDFVMGVNGGISGEMRDFVFLRESIPADATYTVAGVGRYEFPLAALAIIDGGHVRVGFEDNVYISKGVLARSNGELVEKVVRMAKEMGREIATPAEARRILGLSK", "soluble on expression in E. coli": "soluble"}, {"sequence": "MDMSLAEDAQETMATLAPDRFFFMSPYRSFTTSGCFARYTEPAVAGDSPDSPFQQKLRQQFAEAKSQGIANPILVGAIPFDTRQPSSLFIPMAWQSFSRQQKQRTARYFTDHQSLTVTARKAIPEQDAFEAMVARAAMLTATPDVDKVVLSRLIDITTDVAVDSGALLERLVAQNPVSYNFHVPLADGGVLLGASPELLLRKEGERFSSLPLAGSARRQPDDVLDREAGNRLLASQKDRHEHELVTQAMKQILRDRSTELQLPSSPQLITTPTLWHLGTPFEGKANAGENALTLACLLHPTPALSGFPHQVAKKLIAELEPFDRELFGGIVGWCDAEGNGEWVVTIRCAKLHGNQVRLFAGAGIVPASSPVGEWRETGVKLSTMLNVFGLH", "soluble on expression in E. coli": "soluble"}, {"sequence": "MQMQVLTNTKFETVAFQWPAGFYSDGIHIGLRRHKKDFGWLFSKVPASAAGTYTTNQFQAAPTKLTKQMIDQGHQLQGLLLNSAIANSCTGEQGWQNALQEQAWLANKLNVAPNLIGVASTGLIGAQLPMDKIKNGLPQLTPTKSDAVTYAVLTTDQHPKTVCVQCELSGQLVTLTGFAKGSGMIHPKMATMLGFVTTDAQIDGPVLQDMLSTNVDQTFNQITVDGDTSTNDMVVTLANGLADNPSLQAGTTDYDIFNQALHYVLGQLAKQIAADGEGATKLVECNVVHAATTFDGQQIAKAIVGSNLVKAAIFGEDPNWGRIISTIGATDADIDVATVDIEMNGVLLVQQSLAVDFDMAAVQATLRDNQIMIDVDLHHGTASGQAWGCDLTYNYVKINASYHTLEHHHHHH", "soluble on expression in E. coli": "not soluble"}, {"sequence": "MMFNFYQFLYNLQNVSPFIDFSVLKQLTHTKMRENEPARFETRSFSQLIDHARSWKTEVRGMTTQGFTKISLMRAEKDRLNMYAISSVPGTNTQSIFSVTIPLELVEKAQVADRKFELKLKSGYNVDSYIRKTPPSAEFTLQCERQRSQVVTGISDYEIRNGKMILMAGDQLFRYNPLNEALAAIPIAVPDDQSSTEPMDISEGSITSGTKGCSNEAPQSSTVPPVTRIPIKKPTTSTEKPATAPPTNNFVSSAKVCPADSSLLAYVLNKQVYIEKNGKIIHRTSSNSKHITNGVPSYIVQEELERFEGIWWSESKTRLLYEHVNEEKVAESQFGVNGDPPVAPMKYPRAGTKNAYSTLRMVILENGKAYDVPLKDEVIYKHCPFYEYITRAGFFSDGTTVWVQVMSRDQAQCSLLLIPYTDFLLPEELGGSIKEDNLQLSTDLNMGVWDDKSHEETMEKPPRGKLRGTVQIHKARNDYWINTHNAIYPLKITDEEHPMYEFIYCLEKPNGSCLALISAELDQNGYCRHTEEKLLMAENFSINKSMGIVVDEVRELVYYVANESHPTEWNICVSHYRTGQHAQLTESGICFKSERANGKLALDLDHGFACYMTSVGSPAECRFYSFRWKENEVLPSTVYAANITVSGHPGQPDLHFDSPEMIEFQSKKTGLMHYAMILRPSNFDPYKKYPVFHYVYGGPGIQIVHNDFSWIQYIRFCRLGYVVVFIDNRGSAHRGIEFERHIHKKMGTVEVEDQVEGLQMLAERTGGFMDMSRVVVHGWSYGGYMALQMIAKHPNIYRAAIAGGAVSDWRLYDTAYTERYMGYPLEEHVYGASSITGLVEKLPDEPNRLMLVHGLMDENVHFAHLTHLVDECIKKGKWHELVIFPNERHGVRNNDASIYLDARMMYFAQQAIQGFGPTTAAPRQGPL", "soluble on expression in E. coli": "not soluble"}, {"sequence": "MGHHHHHHHHHHSSGHIDDDDKHMRGREEKAPEEPQPVKMPENNSVVEATWNDVQLEDSLGMEVGYRLIPMVDFQQDGELLGRIRSIRKKFAQDMGFLPPVVHIRDNMDLQPARYRILMKGVEIGSGDAYPGRWLAINPGTAAGTLPGEKTVDPAFGLDAIWIESALKEQAQIQGFTVVEASTVVATHLNHLIGQFSAELFGRQEAQQLLDRVSQEMPKLTEDLVPGVVTLTTLHKVLQNLLAEKVPIRDMRTILETLAEHAPLQSDPHELTAVVRVALGRAITQQWFPGNEEVQVIGLDTALERLLLQALQGGGGLEPGLADRLLAQTQEALSRQEMLGAPPVLLVNHALRPLLSRFLRRSLPQLVVLSNLELSDNRHIRMTATIGGK", "soluble on expression in E. coli": "soluble"}, {"sequence": "MKVLLINGSPHAKGCTYTALSEVAKALEEENIETEIFQIGTKPVRGCIGCGTCSKTGSGKCVFDDDTLNAGLEKAKTADGFIFGSPVHYAAASGALTSFLDRFFYAGKDFAYKPGAAIVSCRRGGAAAAFDQLNKYFTIANMPIVSSQYWNMVHGNTPEEVKQDLEGMQTMRTLGKNMAWLLKSIQAGKEAGVKLPEKEQTIRTNFIRLEHHHHHH", "soluble on expression in E. coli": "soluble"}, {"sequence": "MNYAIQSETRHYPYLEVSARKRALKHSLIRVEQGLLLFRLGKHEYAVEKGQTLWIPFDCLCGLTFFPDTHITRVDFSLRLNVRLPHNAGFIKSSELALAVLHRLQNCERHHPTFTHLTQLLMLELTTCDPKLKMSPLTQAITEWQPQAHASVSKEQHVVLLVREALKRSQSGAQTHSIIEELFSGNAEHYHQLCTLVLGRTL", "soluble on expression in E. coli": "not soluble"}, {"sequence": "MVGHVLYGWRDRPRRGEVDYPHTENIRMGHTWDSKRDVSKFDKSWSDQNIVDAIVATLENPDYALSGKVKRVVWKDIHGTTVRVSYNVCLMVGVISDRAYSDTPDRKAKRIVE", "soluble on expression in E. coli": "not soluble"}, {"sequence": "IDEKGRVIIAGIGRFGQVVNRLVRMSGIETVVLDHDMAAVQIMRRFGVKGFFGDPTRPELLQAAGLAEATVLVVAVDDRENAIKIVRYARQVRPDLHIVSRARDRVHVYELYQAGADDIVRETFDSSIRAGRYVLENMGF", "soluble on expression in E. coli": "not soluble"}, {"sequence": "MKVEKFKVLLYLKKSGLDKNGKAPIMGRITLNRTMAQFGCKLSCTPKLWNPRESRLDGKSKEAVEVNAKIDKLLLAINSAYESLVERKTDFDAKAIKDLFQCSADTQMTLLKQLDAIIADIESRIGIDYKKGTLPNYQYTRLTLGLFVKKRYGTDDVAFGELDEQFIREYMDFCLDERGLALDTVRHYLAILKKTCRIAFKAGHSERYHFMHFKLPQKKENPPKALTREDFLKIRDLEIPERRKSLALTRDLFLFACYTGTAYADTVSITEENLFRDEEGSLWLKYHRKKNKMLARVKLLPEALAMLEKYKDPTRPTLLPPQEFRVLRGNM", "soluble on expression in E. coli": "not soluble"}, {"sequence": "MGSDKIHHHHHHMQQAHNDGVVSAMSQATDARLAAQDLARQLLHPHLGFVLFFCSAEYDLQALGEALEQDFGGIRLVGCTSAGEITPLGYGRNCVTAVGFDHRHFSIATALIDEMERFSLIDAQQMVERLVGTCRSNTLAPIKGHSFALTLLDGLSSREEMVLAALSAALGDIPHFGGSAGDDNYLNRTHVYYGGAFHNGAAVVVLVNTWLDFEVFTTHHILPRQEKLVVTGADSAQRRVFELNAEPAAEEYARHIGVPVAALDHRVFAAHPLAVRIHDQYYVRAIQQMHPDLSLSFYCAVENGIVLTAMTPGPLLPNLHQLFDGLHQRLGPLLLTIGCDCFLRRLELEAHRGLEPVGAFLREQRVIGFNTYGEQFNGMHINQTFTGVAIARNRPPVGR", "soluble on expression in E. coli": "not soluble"}, {"sequence": "MAHHHHHHSLRLTPLPQPKRIHYMVKVGDTLSGIFAQLGVPYSILQKILSVDLDHLQLDMIQPGEELELMMDDMGQLSRLIYHMSIVEKAIYTRENDGSFSYDFQEISGEWREILFSGEINGSFSVSARRVGLTSSQVANITQVMKDKIDFSRSLRAGDRFDILVKQQYLGEHNTGNSEIKAISFKLAKGDVSAFLAEDGRFYDRAGNSLERAFNRYPVDKAYRQITSGFNPKRKHPVTGRVVPHNGTDFATPIGAPVYSTGDGKVIVVRKHPYAGNYLVIEHNSVYKTRYLHLDKILVKKGQLVKRGQKIALAGATGRLTGPHLHFEVLVRNRPVDAMKADLPIAKSLSSNQKTSFLARVSEFDHLVQANQQEVALDEG", "soluble on expression in E. coli": "soluble"}, {"sequence": "MSVSSEISASKLPYVRIPGSKPVPRLLKWTIFKCSFMKIRTIGLHHPDGRLYFFEFCQGKDTFVPHVCSACLPIITEKDLFPDYIVWAEEIEDYVIFAFSSMSNKMEQFVYSFETRRFVEVDLPELVYNRGDATTGDIVAALYGENETIVIERDENGAMLIRSFVHKDNSRKPVNTLVMQNIEKNGLQVGKDEEVTDISNEFGYLDYVETLPELKIKTCSANRTSIHVFSKKTGRYLKYHYVINTGSFINTSNLDCSNCNSVTSEKYLLPEYSVYSKALDARVIHCTNNLTSDIEQYTFNPDTNAFEQVYCKELVYDPNRFNRASLAAYVFPENVANNGTVIISRDVYEVIQKEKYSIVTDEYVVLPAAPVKTFAVRIQEEKQKKLDEEEQQKVLKTQELEKQKDGQIVIMELEMKEMTTLLEEKDTRIKMHVEKHRDKECELELVRRKLDDCVVRMQGAFERDIKLEEAKVQASREAKKQYENLMTILGEKE", "soluble on expression in E. coli": "not soluble"}]}]}
